B1: 02-140 peptide phage clone (ErbB2-binding peptide 16) (peptide)
peptide: WTGWCLNPEESTWGFCSGYI
notes: From an EC-1 biased peptide phage library; also called EBP-16
B2: 02-124 peptide phage clone (ErbB2-binding peptide 14) (peptide)
peptide: WTGWCLNPEESTWGFCRSAG
notes: From an EC-1 biased peptide phage library; also called EBP-14
B3: 02-137 peptide phage clone (ErbB2-binding peptide 15) (peptide)
peptide: WTGWCLSPEESTWGFCRSAG
notes: From an EC-1 biased peptide phage library; also called EBP-15
B4: 02-135 peptide phage clone (ErbB2-binding peptide 17) (peptide)
peptide: WTGWCFDDNHSTWGFCTGSF
notes: From an EC-1 biased peptide phage library; also called EBP-17

Target: T1, native, intact ErbB2 extracted from the membranes of human breast cancer cells (human, UniProt P04626 23-1255)
T1 construct: Whole native receptor from cell membrane lysates, captured on plates by an antibody to the intracellular domain of ErbB2; Whole entry named; also called ErbB2 in solubilized membrane preparations / lysates of BT474 and SKBR3 cells
Assay: phage ELISA on captured membrane lysates
Method: The above identified peptide phage specifically bind to native, intact ErbB2 extracted from the membranes of human breast cancer cells that overexpress ErbB2. Plates were coated with 1 μg of an antibody that binds to the intracellular domain of ErbB2, followed by 100 μl of solubilized membrane preparations from two different breast cancer cell lines that overexpress ErbB2 (BT474 and SKBR3), and probed with CB1 peptide-phage, control library phage, and 9G6 anti-ErbB2. MCF7 cells serve as a (relative) negative target control, as MCF7 breast cancer cells express only a low level of ErbB2.

Row | Binder | binding result
1 | B1 | binds
2 | B2 | binds
3 | B3 | binds
4 | B4 | binds

Target: T2, purified ErbB2 ECD-polyhistidine-tagged protein (human, UniProt P04626 23-653)
T2 construct: also called CBECD; purified extracellular domain of ErbB2 with a His tag; not shown: polyhistidine tag
Assay: phage ELISA on coated CBECD, BSA as control
Method: SfmECDAP labeled wells were plated with 250 ng of a purified ErbB2 ECD-alkaline phosphatase fusion protein; CBECD labeled wells were plated with 250 ng of a purified ErbB2 ECD-polyhistidine-tagged protein; bovine serum albumin (denoted BSA) was used as a negative target control. E12 and CB1 are peptide phage clones identified independently that display an identical (ErbB2-binding) peptide. E12CB1-NA peptide phage clones were constructed to present, with and without a glycine-glycine-alanine linker, a shortened form of the peptide. […] G78 is a peptide phage clone that binds strongly to the Grb7 SH2 domain, used here as a negative peptide phage control. Library phage also serve as a negative peptide phage control. 9G6 is an antibody to the ECD of ErbB2.

Row | Binder | binding result
5 | B1 | binds
6 | B2 | binds
7 | B3 | binds
8 | B4 | binds

Source: patent US20030216309A1 (UNIVERSITY OF VERMONT AND STATE AGRICULTURAL COLLEGE, published 2003)
